T1: KSR (Mus musculus, UniProt Q61097)
T1 sequence (Q61097 1-873): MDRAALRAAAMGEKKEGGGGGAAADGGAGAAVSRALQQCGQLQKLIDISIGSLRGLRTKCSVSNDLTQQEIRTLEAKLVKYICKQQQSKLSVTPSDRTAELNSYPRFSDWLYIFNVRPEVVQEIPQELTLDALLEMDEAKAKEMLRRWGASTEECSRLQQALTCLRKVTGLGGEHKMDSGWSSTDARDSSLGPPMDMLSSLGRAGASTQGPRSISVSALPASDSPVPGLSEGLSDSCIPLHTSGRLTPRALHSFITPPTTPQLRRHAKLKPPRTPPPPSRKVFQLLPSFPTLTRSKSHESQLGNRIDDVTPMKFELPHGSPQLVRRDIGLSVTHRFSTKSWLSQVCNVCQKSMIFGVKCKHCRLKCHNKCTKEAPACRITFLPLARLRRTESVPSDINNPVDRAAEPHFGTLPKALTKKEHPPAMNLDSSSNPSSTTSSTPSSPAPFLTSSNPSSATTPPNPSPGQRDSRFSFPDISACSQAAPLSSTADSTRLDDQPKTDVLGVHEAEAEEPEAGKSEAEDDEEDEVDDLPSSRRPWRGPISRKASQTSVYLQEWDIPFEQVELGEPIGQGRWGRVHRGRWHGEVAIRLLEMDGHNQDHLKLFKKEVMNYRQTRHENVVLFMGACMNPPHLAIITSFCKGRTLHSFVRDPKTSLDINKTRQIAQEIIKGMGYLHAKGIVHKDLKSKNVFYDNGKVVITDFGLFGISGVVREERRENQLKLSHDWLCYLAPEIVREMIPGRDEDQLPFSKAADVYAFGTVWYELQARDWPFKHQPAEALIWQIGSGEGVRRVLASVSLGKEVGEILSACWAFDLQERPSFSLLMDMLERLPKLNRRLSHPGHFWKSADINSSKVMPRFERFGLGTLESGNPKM


Tests used:
KSR = target: T1, KSR; assay: KSR autophosphorylation after treatment of COS-7 cells expressing KSR; assay type: cell-based, mouse (KSR expressed in COS-7 cells); details: COS-7 cells, preliminary
Experimental: FIG. 23A--COS-7 cells were transfected as in FIG. 22A and placed in serum-free medium. After 4 hours, cells were stimulated for 10 min with the ceramide analog, C2-ceramide (Biomol), at the concentrations indicated. Cells were lysed with NP-40 lysis buffer, and Flag-tagged KSR (0.8 mg protein for each point) was immunoprecipitated and assayed for autophosphorylation activity as described in Experimental Procedures. The autoradiogram was exposed for 1 hour. KSR is expressed at similar levels in each sample as monitored by Western blot (data not shown). Data represent one of three similar experiments.
COS-7 cells expressing Flag-tagged KSR were stimulated with 10 nM TNFα for the times indicated and lysed with NP-40 buffer as in FIG. 2A. […] The autoradiogram was exposed for 1 hour. Data represent one of three similar experiments.
KSR was immunoprecipitated as above from 0.8 mg NP-40 lysate protein with 40 μl agarose-conjugated anti-Flag antibody at 4° C. for 4 hrs or overnight. […] The reaction was stopped by addition of Laemmli sample buffer. Samples were resolved by 7.5% sodium dodecyl sulfate-polyacrylamide gel electrophoresis (SDS-PAGE) and autoradiographed.

Raf-1 [1] = assay: Activation of Raf-1 by KSR in vitro (MEK1 phosphorylation)
Raf-1 [2] = assay: Raf-1 activity after co-expression with KSR in COS-7 cells; assay type: cell-based, human (Raf-1 expressed in COS-7 cells)
Experimental: Some studies used untagged KSR (n=4) and yielded identical results. At 60 hours post-transfection, cells were lysed with RIPA buffer (NP-40 buffer containing 0.1% SDS and 0.1% deoxy cholate). […] […]. The samples were boiled for 5 min, resolved with SDS-PAGE (7.5%) and autoradiographed.
[…]. After 30 min, the reaction was stopped by addition of Laemmli sample buffer and phosphorylated MBP were resolved by 15% SDS-PAGE, prior to autoradiography.
; a kind gift of Dr. Natalie Ahn) or 1.25 μg recombinant human MEK1 (Santa Cruz), 0.625 μg recombinant human ERK1 (UBI) and myelin basic protein (MBP). After 20-30 min, the reaction was stopped by addition of SDS sample buffer. […]

Molecule	activation of KSR/CAP kinase (KSR)	direct effect on MEK or ERK (Raf-1 [1])	Raf-1 activation in COS-7 cells co-expressing KSR (Raf-1 [2])
EGF: EGF (protein, UniProt P01133 23-1207, looked up, Pro-epidermal growth factor) Pro-epidermal growth factor: PQHWSCPEGTLAGNGNSTCVGPAPFLIFSHGNSIFRIDTEGTNYEQLVVDAGVSVIMDFHYNEKRIYWVDLERQLLQRVFLNGSRQERVCNIEKNVSGMAINWINEEVIWSNQQEGIITVTDMKGNNSHILLSALKYPANVAVDPVERFIFWSSEVAGSLYRADLDGVGVKALLETSEKITAVSLDVLDKRLFWIQYNREGSNSLICSCDYDGGSVHISKHPTQHNLFAMSLFGDRIFYSTWKMKTIWIANKHTGKDMVRINLHSSFVPLGELKVVHPLAQPKAEDDTWEPEQKLCKLRKGNCSSTVCGQDLQSHLCMCAEGYALSRDRKYCEDVNECAFWNHGCTLGCKNTPGSYYCTCPVGFVLLPDGKRCHQLVSCPRNVSECSHDCVLTSEGPLCFCPEGSVLERDGKTCSGCSSPDNGGCSQLCVPLSPVSWECDCFPGYDLQLDEKSCAASGPQPFLLFANSQDIRHMHFDGTDYGTLLSQQMGMVYALDHDPVENKIYFAHTALKWIERANMDGSQRERLIEEGVDVPEGLAVDWIGRRFYWTDRGKSLIGRSDLNGKRSKIITKENISQPRGIAVHPMAKRLFWTDTGINPRIESSSLQGLGRLVIASSDLIWPSGITIDFLTDKLYWCDAKQSVIEMANLDGSKRRRLTQNDVGHPFAVAVFEDYVWFSDWAMPSVMRVNKRTGKDRVRLQGSMLKPSSLVVVHPLAKPGADPCLYQNGGCEHICKKRLGTAWCSCREGFMKASDGKTCLALDGHQLLAGGEVDLKNQVTPLDILSKTRVSEDNITESQHMLVAEIMVSDQDDCAPVGCSMYARCISEGEDATCQCLKGFAGDGKLCSDIDECEMGVPVCPPASSKCINTEGGYVCRCSEGYQGDGIHCLDIDECQLGEHSCGENASCTNTEGGYTCMCAGRLSEPGLICPDSTPPPHLREDDHHYSVRNSDSECPLSHDGYCLHDGVCMYIEALDKYACNCVVGYIGERCQYRDLKWWELRHAGHGQQQKVIVVAVCVVVLVMLLLLSLWGAHYYRTQKLLSKNPKNPYEESSRDVRSRRPADTEDGMSSCPQPWFVVIKEHQDLKNGGQPVAGEDGQAADGSMQPTSWRQEPQLCGMGTEQGCWIPVSSDKGSCPQVMERSFHMPSYGTQTLEGGVEKPHSLLSANPLWQQRALDPPHQMELTQ	does not activate KSR/CAP kinase		
KSR: mouse kinase suppressor of ras, Flag-tagged (protein, UniProt Q61097 1-873, looked up, Flag tag, mouse kinase suppressor of ras, Flag-tagged) Kinase suppressor of Ras 1: MDRAALRAAAMGEKKEGGGGGAAADGGAGAAVSRALQQCGQLQKLIDISIGSLRGLRTKCSVSNDLTQQEIRTLEAKLVKYICKQQQSKLSVTPSDRTAELNSYPRFSDWLYIFNVRPEVVQEIPQELTLDALLEMDEAKAKEMLRRWGASTEECSRLQQALTCLRKVTGLGGEHKMDSGWSSTDARDSSLGPPMDMLSSLGRAGASTQGPRSISVSALPASDSPVPGLSEGLSDSCIPLHTSGRLTPRALHSFITPPTTPQLRRHAKLKPPRTPPPPSRKVFQLLPSFPTLTRSKSHESQLGNRIDDVTPMKFELPHGSPQLVRRDIGLSVTHRFSTKSWLSQVCNVCQKSMIFGVKCKHCRLKCHNKCTKEAPACRITFLPLARLRRTESVPSDINNPVDRAAEPHFGTLPKALTKKEHPPAMNLDSSSNPSSTTSSTPSSPAPFLTSSNPSSATTPPNPSPGQRDSRFSFPDISACSQAAPLSSTADSTRLDDQPKTDVLGVHEAEAEEPEAGKSEAEDDEEDEVDDLPSSRRPWRGPISRKASQTSVYLQEWDIPFEQVELGEPIGQGRWGRVHRGRWHGEVAIRLLEMDGHNQDHLKLFKKEVMNYRQTRHENVVLFMGACMNPPHLAIITSFCKGRTLHSFVRDPKTSLDINKTRQIAQEIIKGMGYLHAKGIVHKDLKSKNVFYDNGKVVITDFGLFGISGVVREERRENQLKLSHDWLCYLAPEIVREMIPGRDEDQLPFSKAADVYAFGTVWYELQARDWPFKHQPAEALIWQIGSGEGVRRVLASVSLGKEVGEILSACWAFDLQERPSFSLLMDMLERLPKLNRRLSHPGHFWKSADINSSKVMPRFERFGLGTLESGNPKM		no direct effect	marked increase in Raf-dependent MEK1 phosphorylation

Source: patent US6040149A, “Assay for identifying agents which act on the ceramide-activated protein kinase, kinase suppressor of ras, and methods of using said agents” (priority 1997, dated 2000)
